According to the DeepSol protein solubility set:

Test: soluble on expression in E. coli; label from the status in PepcDB or PDB records

Sequence: MTDTDTQADRFEQMMWQAVDKLFEQHDGKLESMDGREQELVLIWRTEADIGNGSILQFVCNWGFPAAEKTCSVLKKIGAVHSAMLIHRAADALDKEIRRLQSEGKNLKEMWDITSRQQNRLTAEQSG
- soluble on expression in E. coli: not soluble

Sequence: MPSKLALIQELPDRIQTAVEAAMGMSYQDAPNNVRRDLDNLHACLNKAKLTVSRMVTSLLEKPSVVAYLEGKA
- soluble on expression in E. coli: soluble

Sequence: MRVDLNSDLGESFGRYKLGLDEEVMKYITSANVACGWHAGDPLVMRKTVRLAKENDVQVGAHPGYPDLMGFGRRYMKLTPEEARNYILYQVGALYAFAKAEGLELQHVKPHGALYNAMVKEEDLARAVIEGILDFDKDLILVTLSNSRVADIAEEMGLKVAHEVFADRAYNPDGTLVPRGRPGAVIEDKEEIAERVISMVKDGGIRAINGEWVDLKVDTICVHGDNPKAVEITSYIRKVLEEEGVKIVPMKEFIR
- soluble on expression in E. coli: soluble

Sequence: MSLGEHLEFDEKKIEKIMMIKRSYLNGEISLEEAKIKMQASFDQVTAQEFAICEQYLQKYGISDDVLAERMEEIIEIFDGVLVTTKLNLPSGHPIRTYLDEVDAIRRILGEMREMSKKKFIKNQWAQYYDQLGEINIHFARKQNQLFTALEKKGFDKPSKVMWTLDNNIRDMIKKAKEYLETDQDNAFLEIQDEVIEMVEDMMVKEEEILFPTTMDLLTDEDFIEMRKGDDEIGYCLIDSPLPYGKKENKDTDTSSNNELLKDLANVLQKHGMLTKASNDEVLDVSQGKLTLEQINLLFKHLQVDLSFVDENEIVKFYSDTKHRVFPRSAGVIGREVQNCHPRESVHTVEEIIRAFRAGEHDEAEFWLEMGGKFIYIIYNAVRDEDGNFKGVLEMMQDVTKIRSLTGSQRLLSWGDKEEEPKSKVTEHTGIENEYGITKETIIGDLVKEYPFIKEFLFNLSPKFSKLQNPIVFKTMSSIATVEMISEKGGFEVQDLIDRIVKEIQSRKEGHHHHHH
- soluble on expression in E. coli: soluble

Sequence: MKIARLNLWHVPLTSHTAYYMADGKTCDTVETVVIAVQTDTGITGWGEVCPIPHYLPAYARGVAPALTELAPVILGADPVGVGALMERVDAVLHGHPYAKSALDIALWDITGQVAGLPLHALLGGWRAADMPLYHSITCIAPDDMARIAREAQAQGITQFQVKLGASGDWQTDVERLAKVREAVGPGPLVYGDWNCGATSLEAIRVGRAVAQLDIMLEQPCATLEDCARVQRATGLPMKIDELAHDTASLLTAHRLGIMDAVALKLSKFGGLSTTRRARDLCLHLGARMCIEDTWGSDITTAALLHLGAASEPGRVLNVCDLSGYVAPRLAPDAPVRANGRIAPPEGAGLGITVDRGALGVPDLILD
- soluble on expression in E. coli: soluble

Sequence: MAGDPMATLTRLFIHPVKSMRGIGLTHALADVSGLAFDRIFMITEPDGTFITARQFPQMVRFTPSPVHDGLHLTAPDGSSAYVRFADFATQDAPTEVWGTHFTARIAPDAINKWLSGFFSREVQLRWVGPQMTRRVKRHNTVPLSFADGYPYLLANEASLRDLQQRCPASVKMEQFRPNLVVSGASAWEEDSWKVIRIGDVVFDVVKPCSRCIFTTVSPEKGQKHPAGEPLKTLQSFRTAQDNGDVDFGQNLIARNSGVIRVGDEVEILATAPAKIYGAAAADDTANITQQPDANVDIDWQGQAFRGNNQQVLLEQLENQGIRIPYSCRAGICGSCRVQLLEGEVTPLKKSAMGDDGTILCCSCVPKTALKLTRLEHHHHHH
- soluble on expression in E. coli: not soluble

Sequence: MAHHHHHHMAKEYPILVVPCKRGGIPCLTPDQARAILNEEERVISVSIFDASEFVDPCKKANQGFAEFCGLGEFRTILTVRSPHIGMHASAPATDAGLCANHEKGRISLGMDKWKEMVLPLRPEIAIPPYDSVSINEPQKKRRRTAMTRSAKWATSADSLQGNGNCKLMKPLCAAENNGEFVFLEELCQNETLQQYTYHVKEAINKGQVMSTAISLPSLLICLKYNVCFIESAIPWILAEKGIGLVFDFNPVSGVSPARYETQIDLNDDCFTKDIRPLSPDCNCYTCKRHMRAYIHHLLTVQEMNSKTLLVIHNLTRLIQLVRLYRILDAEDREALLNWLFAQF
- soluble on expression in E. coli: not soluble

Sequence: MGRSATPEGDPARTMELLWGGGSTPISRPRNGKPGLTLDRIVETAVSVADAEGLDAVSMRRLASELGAGAMSLYTHVPGKTELVEVMLDRALSTLEPADDADEGWRERLAAAAHDYFHLLCAHPWMLGVVALSRPVLGPGGMAKYERELRAVEGLGLSDLDMDSVVTLLDSFVAGAARAAVDAAALAAQGEADSEWWQRVAPHFEKVFDPDRFPLAARVGASAGEHHDAAYVPAHAFEFGLTRLLDGVGALIVDGGTGGE
- soluble on expression in E. coli: not soluble

Sequence: MERITVTLGERSYPITIAAGLFNEPASFLPLKSGDQVMLVTNETLAPLYLDKVRGVLERAGVNVDSVILPDGEQYKSLTVLDTVFTALLKKPHGRDTTLVALGGGVIGDLTGFAAASYQRGVRFIQVPTTLLSQVDSSVGGKTAVNHPLGKNMIGAFYQPASVVVDLDCLKTLPARELTSGLAEVIKYGIILDADFFTWLEGNLDALLRLDGPAMAYCIRRCCELKAEVVAADEREAGLRALLNLGHTFGHAIEAEMGYGNWLHGEAVAAGIVMAARASERLGQFSSADTQRIIALLERAGLPVNGPCEMSAQDYLPHMLRDKKVLAGELRLVLPLAIGKSEVRGGVSHEVVLSAIADCQQA
- soluble on expression in E. coli: not soluble

Sequence: MGSDKIHHHHHHMKNLEQRKSWYAEVAINYTSQQRKNWYNDVADAYNRTRPRYPQQLVSRVVELAQLPQNAAILEVGCGPGTATTAFAQLGFSMVCLEPSQNSSQLAQQNCSPYPNVEIINTSFEEWPLEPGKFDAVLAATSFHWVSPEIGYSKAADALKDHCSLILLWNMTPQPEYEVYQRLHEVYQAQAPTLERYEEQEAQEKHLRRFGKAVIDSGRFQDLVSEQLRCDVTYSIDDYLTLLSTLSPYIALDSQQRNSLFTSLRETLEKHCGSSVEISYLSAFHVAKKI
- soluble on expression in E. coli: not soluble

Sequence: MSLSYTEEWVTARARGAYEHGRASFDVRPERTALLVIDMQDEFVRPGWSPYWVPAATRMAPRLRRLIEGCRSAAVPVIWSIFDDTHLGLDRPKALGYLPHADTDWRRPGPAEVWDQMGRRPDEALIRKPSYGAFYDTPLDTMLRNLGRDTVIVTGTLTNYCCGTTARQAYERGYKVVFGADVTATDDESRQEPELAVLRKGFALVLTAEEITNQLAEGHHHHHH
- soluble on expression in E. coli: soluble

Sequence: MGSDKIHHHHHHMADRASEAELIKLPVSKLTRGMFVAAIENNGKVAVANAGQIKSRETIAKLVKSGIHHVWVDAERSSDESGLKPKSAQGSAAPAAGAVRPSRANRDLRQTQAKKLLHEAKELIRKVLSETFEGKAIEVKPFEALADNMIESIMLDDDALKCVSALRDKDAYLLEHSVNVAFLLVTFGKYLKLDRETLKQMAVGGVLHDIGKIKVDNKILHKPGKLTPEEFEHMKLHQFYAMDIMSEASALSQISKDVCLMHHEKLDGRGYPRGLKGDEIPLHGRMSCIVDIFDALTATRCYKEAMSPAAAFKILLSLTPFHLDTDLVYEFIRCIGVYPVGSLVELSDGRVGIVWESKDRDALSPVVKCFYSLKHKRYTEVNFVDLLKSDLNIERGVSPSSLDVDPKPFY
- soluble on expression in E. coli: not soluble

Sequence: MTESFAQLFEEFLNETQFQQGTIVKGTVVAIENGYVLVDAGLKSESAIPAEQFKNAAGELEVQVGSQVDVALDAVEDGFGETQLSREKAKRHEAWIVLEKAYEEAATVIGIINGKVKGGFTVELNGIRAFLPGSLVDVRPIRDTAHLENKELEFKVIKLDQKRNNVVVSRRAVIESESSVERDELLETLQEGTEVKGIVKNLTDYGAFVDLGGVDGLLHITDMAWKRVKHPSEIVNVGDEILVKVLKFDRDRTRVSLGLKQLGEDPWVAIAKRYPEGHKLSGRVTNLTDYGCFVEIEEGVEGLVHVSEMDWTNKNIHPSKVVNVGDEVEVMVLDIDEERRRISLGLKQCKANPWQSFAEAQAKGDKVTGKIKSITDFGIFIGLEGGIDGLVHLSDISWNVPGEEAVREFKKGDEISAVVLAVDAERERISLGIKQMENDPFNAYVSDNKKGALVNGTVTAVDAKGATIELEDGVEGYIRASEVSRDRIEDASLILNVGDKVEAKFTGVDRKNRVINLSIKAKDEAEEQEVMATLNKQDEAAFGNAMADAFKAAKGELEHHHHHH
- soluble on expression in E. coli: not soluble

Sequence: NSSFTPSTVPNINFSGLNGGITNTATNALRPSDIFGANA
- soluble on expression in E. coli: soluble

Sequence: MDGAQPKTNFFERLIARLAREPDSAEDVLNLLRQAHEQEVFDADTLTRLEKVLDFAELEVRDAMITRSRMNVLKENDSIERITAYVIDTAHSRFPVIGEDKDEVLGILHAKDLLKYMFNPEQFHLKSVLRPAVFVPEGKSLTALLKEFREQRNHMAIVIDEYGGTSGLVTFEDIIEQIVGDIEDEFD
- soluble on expression in E. coli: soluble

Sequence: RKDFTKEEVNYLFHGVKTMGNHWNSILWSFPFQKGRRAVDLAHKYHRLI
- soluble on expression in E. coli: soluble

Sequence: SNAMKQLSGLLGELRQKLCAGFPEQAGIQQLIFPAPGLVGRQLLEWLTAQTHFPQFYWRHRDNHEEAAVCGQTRSFADMKDADDFIQQNPDANGLRIWGLNAFEPVMVFGQLTDNGLVSGKNAQASFLFLPRLEILRRGKKTSLTLNLSSETSLQKDALQAITFIDQLMAARALPVLNARIQHSSHTPGYPQWRNLIQQALNDIEQQKLDKVVLARTTTLTLNKPLSCAAFMAASRQVNHRCYHFMLRFDDRQAFLGSSPERLYLRQQLHLETEALAGTVSNLDSDPQAAVLADWLMHDEKNQRENLLVVDDICQRLQGGVTAVDVMPPEIIRLRKVQHLRRRICAQLSRASDTDCLQRLQPTAAVAGLPREAARQFIAKHELFSRGWYAGSAGYLSLKRTEFSVALRSARVDGQQIHLYAGAGIVAGSDAEQEWQEIDNKSAGLQSLLEHEAQPVKA
- soluble on expression in E. coli: soluble

Sequence: MAEGVADRIIGLYSLGNSTREISDWLKENLGNRVSDETISSITDRVLPEIKVWRSRILDDVYSIVWINAIHYKVTDERGCTVTRAIYNVLGIDKEGHKDLLGMYISKNEGANFWLNVLTDLQNRGVHDILIAYVDGLKGWMPPKVFFRTQYYNFVSSTRYGTPLNMSVVSIRRNSSKT
- soluble on expression in E. coli: not soluble

Sequence: REVLARDREVLRSVYGILVQAHYRNTPDDLLAMLESPHHRIYALEADGTPVAVADVVLEGPDVEEEARIALERLLYMAGSPGSGVVSWRVSRIAVHEDLQRRGLGSRLLRHVEAQARESGASLVTTMFSRHDVIPFWLKNGFKPFYVSPRYNRVTGEKNVALAKPLDSAGA
- soluble on expression in E. coli: not soluble

Sequence: MAGDPMVNRETLIARIEQELVQAEQAQHDHDFEKHMYAIHILTSLYASTSNTPHIGEQQMNRRIANHNQMPQSQITQPTHQVTAAEIEAMGGKVNTHSAHHHNKSYSQPSNQQQRLATDDDIGNGESIFDFLEHHHHHH
- soluble on expression in E. coli: not soluble

Sequence: MYNDVLFPGEDINKPISIAAANRFVNRIRGGMDLGYWRTHDFRRTLVTRLSEMNVEPHVTERMLGHELGGIMSVYNKHDWIEAQRKAYELHADKLFWHIRSISD
- soluble on expression in E. coli: not soluble

Sequence: MSLKNSMTILDAIRALDDPTRLRIMRLLASMELAVGEVAQVLGQSQPRVSRHIKILCDSGLAERRKEGAWVFLRSSIGEGAESPLASALARLLAVAEHEDTAFGRRCSEDRQHLDAIRSSRESHALEWFARHADEWDELRSLHIADGPVEAALTEMLLALSGDGSLGRLLDVGTGTGRIAELFAPNAAHVVAFDKSPDMLRIARARLQHLPADAVELVQGDFAQLPFAARSFDTVLFHQVLHYAQAPEAVLAGAARVTAPGGRVAIVDFAAHEREDLRQTHAHARLGFSDAQIETMLLDAGFIPHETRALAGHELVVKLWTAVRREDSVTQLEPRQKSSSGKTEGHHHHHH
- soluble on expression in E. coli: soluble

Sequence: MEVHDKIRTLREVNQWTQEEMAEKLEMSVNGYSKIERGKSGINLDKLRQIAQIFNIDVVELLAEQNRSFFFSIGDNTNNHHNIIGSDEMLVFENEKLRSLLDAKDELIRQKDSEIAVLKKLVILLEEKK
- soluble on expression in E. coli: not soluble
